The target in test [1] is T1, Cynomolgus monkey PD-1-His protein (AcroBiosystems, # PD1-05223) (cynomolgus monkey, UniProt B0LAJ3 25-170).
T1 construct: Bought reagent, coated on the ELISA plate; also called cynomolgus monkey PD-1 protein
In words: ELISA, plate-coated cynomolgus monkey PD-1-His. The method, then:
Cynomolgus monkey PD-1-His protein (AcroBiosystems, # PD1-05223) was diluted to 2 μg/mL with PBS, added to a 96-well plate (Corning, #9018) at 100 μL/well, and incubated at 4° C. overnight. After the liquid was discarded, the plate was washed 3 times with PBST, blocked by adding 250 μL of 2% BSA, and incubated at room temperature for 1 h. The blocking buffer was discarded, and the plate was washed 3 times with PBST buffer (pH 7.4, containing 0.05% Tween-20). The test antigen-binding protein was diluted to 5 μg/mL, and added at 100 μL/well. The plate was incubated at 37° C. for 1 h. After the plate was washed 3 times with PBST buffer (pH 7.4, containing 0.05% Tween-20), a 4000-fold diluted goat anti-human HRP secondary antibody (Invitrogen, #A18805) was added. The plate was incubated at 37° C. for 1 h. After the plate was washed, TMB (Biopanda, # TMB-S-003) was added at 100 μL/well. The plate was left away from light at room temperature for 5 min. The reactions were terminated by adding 50 μL of stop buffer (BBI life sciences, #E661006-0200) to each well, and the absorbance values at 450 nm (OD450) were measured using a microplate reader (PerkinElemer, #Enspire).
Background: In an ELISA, binding on a coated surface is turned into a signal by an enzyme label.

Test [2] addresses T2, Cynomolgus monkey PD-1 expressed on CHO-K1 cells (CHO-K1/cyno PD-1) (cynomolgus monkey, UniProt B0LAJ3 25-288).
T2 construct: also called CHO-K1 cells overexpressing cynomolgus monkey PD-1
As to the kind of experiment: FACS, CHO-K1/cyno PD-1 cells. The method, then: In order to investigate the in vitro binding activity of the PD-1 antigen-binding proteins to human/cynomolgus monkey PD-1, the binding assay at the cellular level was performed using a CHO-K1 cell strain overexpressing human or cynomolgus monkey PD-1 (CHO-K1/hPD-1 or CHO-K1/cyno PD-1, from GenScript). Briefly, the CHO-K1-hPD-1 cells were digested and resuspended in an F-12K complete medium, and the cell density was adjusted to 1×10⁶ cells/mL. The cells were seeded in a 96-well V-bottom plate (Corning, Cat#3894) at 100 μL/well, followed by the addition of the test antigen-binding proteins with concentrations 2-fold of final concentrations obtained by 5-fold gradient dilution were each added at 100 μL/well. The mixtures were well mixed. The maximum final concentration of the antigen-binding proteins was 100 nM or 300 nM. A total of 8-11 concentrations were set. hIgG was used as a control. The cells were incubated at 4° C. for 1 h away from light. Thereafter, the cells in each well were rinsed twice with 100 μL of pre-cooled PBS, and centrifuged at 500 g at 4° C. for 5 min, and then the supernatant was discarded. Then 100 μL of a fluorescent secondary antibody (goat anti-human IgG (H+L) secondary antibody, Alexa Fluor® 488 conjugate, Invitrogen, Cat #A11013, 1:1000) was added to each well. The plate was incubated away from light at 4° C. for 30 min. The cells in each well were rinsed twice with 200 μL of pre-cooled PBS, and centrifuged at 500 g at 4° C. for 5 min, and then the supernatant was discarded. Finally, the cells in each well were resuspended in 200 μL of pre-cooled PBS, and the fluorescence signal values were read using a BD FACS CANTOII.
In general terms: In flow cytometry, cells or beads pass a laser one at a time.

Test [3] addresses T3, Human CD73 expressed on CHO-K1 cells (CHO-K1-hCD73) (human, UniProt P21589 27-549).
T3 construct: whole, on cells
T3 sequence (looked up): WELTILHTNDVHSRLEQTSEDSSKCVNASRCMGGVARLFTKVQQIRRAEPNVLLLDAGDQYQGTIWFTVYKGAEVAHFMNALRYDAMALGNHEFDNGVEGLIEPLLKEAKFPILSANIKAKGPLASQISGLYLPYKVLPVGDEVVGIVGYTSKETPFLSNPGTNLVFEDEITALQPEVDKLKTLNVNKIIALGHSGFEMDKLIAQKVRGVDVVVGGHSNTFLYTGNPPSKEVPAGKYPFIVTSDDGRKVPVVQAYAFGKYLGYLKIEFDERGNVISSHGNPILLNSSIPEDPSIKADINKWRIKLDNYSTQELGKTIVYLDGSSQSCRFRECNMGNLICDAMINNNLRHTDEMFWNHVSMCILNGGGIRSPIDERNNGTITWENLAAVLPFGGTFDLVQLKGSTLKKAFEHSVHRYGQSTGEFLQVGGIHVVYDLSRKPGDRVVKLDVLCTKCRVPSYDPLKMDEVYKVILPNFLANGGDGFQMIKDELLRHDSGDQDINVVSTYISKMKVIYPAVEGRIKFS
In words: FACS, CHO-K1-hCD73 cells. The method, then:
In order to investigate the binding activity of the CD73×PD-1 bispecific antibody to human CD73 and PD-1, the binding assay at the cellular level was performed using a CHO-K1 cell strain overexpressing human CD73 or PD-1 (CHO-K1-hCD73 or CHO-K1-hPD-1). Briefly, the CHO-K1-hCD73 and CHO-K1-hPD-1 cells were digested and resuspended in an F-12K complete medium, and the cell density was adjusted to 1×10⁶ cells/mL. The cells were seeded in a 96-well V-bottom plate (Corning, #3894) at 100 μL/well, followed by the addition at 100 μL/well and centrifugation at 500 g at 4° C. for 5 min, and then the supernatant was discarded. Antibodies were 3-fold diluted to a maximum final concentration of 50 nM, and a total of 8 concentrations were set. 100 μL of the diluted antibodies was added to each well, and the cells were incubated at 4° C. for 1 h away from light. Thereafter, the cells in each well were rinsed twice with 100 μL of pre-cooled PBS, and centrifuged at 500 g at 4° C. for 5 min, and then the supernatant was discarded. Then 100 μL of a fluorescent secondary antibody (goat anti-human IgG (H+L) secondary antibody, Alexa Fluor® 488 conjugate, Invitrogen, Cat #A11013, 1:1000) was added to each well. […] Finally, the cells in each well were resuspended in 200 μL of pre-cooled PBS, and the fluorescence signal values were read using a BD FACS CANTOII.

The target in test [4] is T4, Human PD-1 expressed on CHO-K1 cells (CHO-K1/hPD-1) (human, UniProt Q15116 25-288).
T4 construct: whole, on cells; also called CHO-K1 cells overexpressing human PD-1
In words: FACS blocking of biotin-labeled human PD-L1 binding to CHO-K1-hPD-1 cells. Here is the method:
Briefly, the CHO-K1-hPD-1 cells were digested and resuspended in an F-12K complete medium, and the cell density was adjusted to 1×10⁶ cells/mL. The cells were seeded in a 96-well V-bottom plate (Corning, Cat#3894) at 100 μL/well, followed by the addition of the test antigen-binding proteins with concentrations 2-fold of final concentrations obtained by 3-fold or 5-fold gradient dilution were each added at 100 μL/well. The mixtures were well mixed. The maximum final concentration of the antigen-binding proteins was 100 nM or 300 nM. A total of 8 concentrations were set. hIgG was used as a control. The cells were incubated at 4° C. for 1 h away from light. […] The cells were incubated at 4° C. away from light for 30 min. The cells in each well were rinsed twice with 100 μL of pre-cooled PBS, and centrifuged at 500 g at 4° C. for 5 min, and then the supernatant was discarded. A fluorescent secondary antibody (PE Streptavidin, BD, Cat# 554061, 1:200) was added at 100 μL/well, and the cells were incubated at 4° C. away from light for 30 min. The cells in each well were rinsed twice with 200 μL of pre-cooled PBS, and centrifuged at 500 g at 4° C. for 5 min, and then the supernatant was discarded. Finally, the cells in each well were resuspended in 200 μL of pre-cooled PBS, the fluorescence signal values were read using a BD FACS CANTOII, and the IC₅₀ values were calculated.

For test [5], the target named is T4, Human PD-1 expressed on CHO-K1 cells …. As to the kind of experiment: FACS, CHO-K1/hPD-1 cells. The method in brief: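 CHO-K1 cells overexpressing human or cynomolgus PD-1 were incubated 1 h at 4 °C with antigen-binding proteins: 8-11 concentrations, 5-fold dilutions, top final 100 nM or 300 nM, hIgG control. Binding was detected with Alexa Fluor 488 anti-human IgG (30 min, 4 °C) and read by flow cytometry.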

The target in test [6] is T5, Human PD-1-His protein (ACROBiosystems, # PD1-H5221) (human, UniProt Q15116 25-167).
T5 construct: Bought reagent, coated on the ELISA plate; also called human PD-1 protein; human PD-1 antigen; not shown: His tag
In words: ELISA, plate-coated human PD-1-His. The method, then:
Human PD-1-His protein (ACROBiosystems, # PD1-H5221) was diluted to 2 μg/mL with PBS, added to a 96-well plate (Corning, cat#9018) at 100 μL/well, and incubated at 4° C. overnight. After the liquid was discarded, the plate was washed 3 times with PBST buffer (pH 7.4, containing 0.05% Tween-20), and 250 μL of 2% BSA blocking buffer was added. The plate was incubated at 37° C. for 1 h. The blocking buffer was discarded, and the plate was washed 3 times with PBST buffer (pH 7.4, containing 0.05% Tween-20). The test antigen-binding protein was 5-fold diluted in sequence at an initial concentration of 100 nM for a total of 8-10 concentration gradients, and added at 100 μL/well. The plate was incubated at 37° C. for 1 h. An isotype antibody was taken as a control. After the plate was washed 3 times with PBST buffer (pH 7.4, containing 0.05% Tween-20), a 4000-fold diluted goat anti-human HRP secondary antibody (Invitrogen, #A18805) was added. The plate was incubated away from light at 37° C. for 1 h. After the plate was washed 3 times with PBST buffer (pH 7.4, containing 0.05% Tween-20), TMB (Biopanda, # TMB-S-003) was added at 100 μL/well. The plate was left away from light at room temperature for about 5 min. The reactions were terminated by adding 50 μL of stop buffer (BBI life sciences, #E661006-0200) to each well, and the absorbance values at 450 nm (OD450) were measured using a microplate reader (PerkinElemer, #Enspire). The half maximal effective concentration (EC₅₀) was calculated from the measurement results.

In general, EC50 refers to the concentration giving half of the maximal effect. The IC50 is the point on the concentration scale where inhibition reaches its midpoint.

T1 sequence (B0LAJ3 entry or part of it limits assumed): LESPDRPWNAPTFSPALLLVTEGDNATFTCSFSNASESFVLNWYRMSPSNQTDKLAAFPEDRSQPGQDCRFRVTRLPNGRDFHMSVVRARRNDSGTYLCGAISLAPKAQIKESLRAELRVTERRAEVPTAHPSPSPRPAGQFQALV
T5 sequence (Q15116 25-167 limits assumed): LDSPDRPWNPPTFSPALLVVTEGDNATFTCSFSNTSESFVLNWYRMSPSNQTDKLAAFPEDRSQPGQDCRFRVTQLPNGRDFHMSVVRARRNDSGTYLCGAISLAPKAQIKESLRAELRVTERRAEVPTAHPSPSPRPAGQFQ
T4 sequence (Q15116 25-288): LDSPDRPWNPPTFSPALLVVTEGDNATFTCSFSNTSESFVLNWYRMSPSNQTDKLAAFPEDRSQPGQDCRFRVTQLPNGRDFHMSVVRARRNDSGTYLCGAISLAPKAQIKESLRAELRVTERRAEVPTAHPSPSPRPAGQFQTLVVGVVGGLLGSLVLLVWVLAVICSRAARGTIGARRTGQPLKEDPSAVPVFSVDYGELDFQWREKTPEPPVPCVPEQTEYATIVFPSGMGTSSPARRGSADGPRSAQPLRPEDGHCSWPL
T2 sequence (B0LAJ3 entry or part of it limits assumed): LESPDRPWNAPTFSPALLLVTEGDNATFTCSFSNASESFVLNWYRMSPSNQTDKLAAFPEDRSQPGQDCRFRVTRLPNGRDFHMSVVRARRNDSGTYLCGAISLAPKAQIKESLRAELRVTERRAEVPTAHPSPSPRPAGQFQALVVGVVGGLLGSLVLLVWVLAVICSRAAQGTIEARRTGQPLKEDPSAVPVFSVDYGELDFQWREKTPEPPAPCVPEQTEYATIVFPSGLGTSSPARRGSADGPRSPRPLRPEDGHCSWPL

B1: PR000150 (pembrolizumab analog) (antibody, human IgG4 S228P, kappa, V domains shown)
VH: QVQLVQSGVEVKKPGASVKVSCKASGYTFTNYYMYWVRQAPGQGLEWMGGINPSNGGTNFNEKFKNRVTLTTDSSTTTAYMELKSLQFDDTAVYYCARRDYRFDMGFDYWGQGTTVTVSS
VL: EIVLTQSPATLSLSPGERATLSCRASKGVSTSGYSYLHWYQQKPGQAPRLLIYLASYLESGVPARFSGSGSGTDFTLTISSLEPEDFAVYYCQHSRDLPLTFGGGTKVEIKR
notes: Anti-PD-1 positive control; also called positive control antibody pembrolizumab
For the molecule B1, in test [1], the half-maximal effective concentration (EC50) came out at 0.039 nM and the “OD Maximum” value stood at 2.86. In addition, in test [2], the half-maximal effective concentration (EC50) came to 0.998 nM and the “MFI Maximum” value is 19100.

B2: PR000846 (antibody, human IgG1, kappa, L234A L235A, V domains shown)
VH: QVQLVESGGGVAQPGRSLSLSCAASGFTFSDYGMHWVRQAPGKGLEWVALIWYDASFEYYADSVKGRFSISRDNSKNTLYLQMNSLRAEDTAVYYCVRDAQWGSRLDYWGQGTLVTVSS
VL: KIVMTQSPATLSLSPGERATLSCRASQSVSRYLAWYQQKPGQAPRLLIYDASNRATGIPARFSGSGSGTDFTLTISSLEPEDFAVYYCQQRSNWIFTFGPGTKVDIKR
notes: Parent monoclonal antibody of the CD73 end of PR003568; also called anti-CD73 IgG monoclonal antibody PR000846; anti-CD73 H2L2 antibody PR000846
Consider B2, for which the midpoint of the response in test [3], the EC50, lay at 1.45 nM.

B3: PR002474 (antibody, human IgG1, V domains shown)
VH: EVQLVETGGGLIQPGGSLRLSCAASGFNVSSHYMSWVRQAPGKGLEWVSIIHSGGSTYYADSVKGRFTISRDNSKNRLYLQMNSLRADDTAVYYCARATAVAEKNGYNYPFNYWGQGTLVTVSS
notes: Heavy-chain-only antibody (HCAb), human IgG1 Fc; two heavy chains, no light chain; also called R4004P547D3
For B3, in test [4], the IC50 was 8.91 nM and the “Maximum inhibition rate (%)” value came out at 92.2%. In test [5], the EC50 is 13.9 nM and the “MFI Maximum” value was 1.08e+06. In test [6], the half-maximal effective concentration (EC50) turned out to be 0.189 nM and the “OD Maximum” value was found to be 2.97. Moreover, in test [1], the concentration giving a half-maximal response (EC50) was found to be 0.345 nM and the “OD Maximum” value is 2.89.

B4: PR002479 (antibody, human IgG1, V domains shown)
VH: EVQLVETGGGLIQPGGSLRLSCAASGFNVSSHYMSWVRQAPGKGLEWVSIIHSGGSTYYADSVKGRFTISRDNSKNRLYLQMNSLRAEDTAVYYCARATAVAEENGYNYPFNYWGQGTLVTVSS
notes: Heavy-chain-only antibody (HCAb), human IgG1 Fc; two heavy chains, no light chain; also called R4004P551D6
On to B4, for which, in test [4], the IC50 worked out at 16.2 nM and the “Maximum inhibition rate (%)” value is 96.2%. Also, in test [5], the EC50 is 17 nM and the “MFI Maximum” value amounted to 1.05e+06. For the same molecule, in test [6], the EC50 turned out to be 0.152 nM and the “OD Maximum” value was 2.85. Besides, in test [1], the midpoint of the response, the EC50, lay at 0.252 nM and the “OD Maximum” value turned out to be 2.88.

B5: PR002476 (antibody, human IgG1, V domains shown)
VH: EVQLVETGGGLIQPGGSLRLSCAASGFNVSSHYMSWVRQAPGKGLEWVSIIHSGGSTYYADSVKGRFTISRDNSKNRLYLQMNSLRAEDTAVYYCARATAVAEKNGYNYPFNYWGQGTLVTVSS
notes: Heavy-chain-only antibody (HCAb), human IgG1 Fc; two heavy chains, no light chain; also called R4004P547H11
With B5, in test [4], the IC50 was determined as 10.3 nM and the “Maximum inhibition rate (%)” value amounted to 91.3%. In addition, in test [5], the EC50 is 12.7 nM and the “MFI Maximum” value was 1.02e+06. Moreover, in test [6], the concentration for a half-maximal effect (EC50) turned out to be 0.171 nM and the “OD Maximum” value stood at 2.92. Also, in test [1], the EC50 was determined as 0.366 nM and the “OD Maximum” value is 2.7.

The values above are taken from patent US20240034792A1 (HARBOUR BIOMED SHANGHAI, published 2024).
